Measurements as given in US20030032785.

How the values were obtained:
[1] = system: T1, VEGF165 (vascular endothelial growth factor, 165 aa form) (Homo sapiens), P15692-4; test: filter; conditions: 2'-NH2 at all C and U; 2'-OMe A5,A16,G13,G17,G20,G24-26,G28; PS 2'-deoxy T caps 1-4 and 29-33
T1 sequence: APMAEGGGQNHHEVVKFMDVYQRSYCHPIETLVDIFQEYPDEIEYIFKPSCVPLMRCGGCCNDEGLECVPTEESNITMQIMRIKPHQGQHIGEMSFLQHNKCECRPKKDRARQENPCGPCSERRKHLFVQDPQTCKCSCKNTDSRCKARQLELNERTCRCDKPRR

[2] = system: T1, VEGF165 (vascular endothelial growth factor, 165 aa form) (Homo sapiens), P15692-4; test: competition; conditions: 2'-NH2 at all C and U; 2'-OMe A5,A16,G13,G17,G20,G24-26,G28; PS 2'-deoxy T caps 1-4 and 29-33; 125I-VEGF receptor binding

TTTACCCUGAUGGUAGACGCCGGGGUGTTTTT [NX-214]
Kd [1]: 0.2 nM | Ki [2]: 1 nM
